Consider eleven substances from patent US12357965B2, “Supramolecular filamentous assemblies for protein purification” (The Johns Hopkins University, priority 2017, dated 2025).

The nature of data set [1]: Critical micelle concentration (CMC) measurement with Nile Red. It is filed as physicochemical. The note with it: deionized water. How it is done:
CMC Measurement. […] The stock solution of Nile Red was initially prepared by dissolving the dye in acetone at 50 μM. 10 μL stock solution was loaded into several centrifuge tubes, where the solvent evaporates under room temperature to yield the dry mass of Nile Red. Various concentrations of the peptide solutions were prepared in deionized water, and then identical volume was added into the centrifuge tubes containing dry Nile Red and aged overnight. Fluorescent spectra of Nile Red were then monitored by a Fluorolog fluorometer (Jobin Yvon, Edison, NJ) with fixed excitation wavelength at 560 nm; emission spectra were monitored 580-720 nm. The CMC of IAs is determined by a blue-shift of the emission maximum, whereas this transition occurs as the incubated peptides exceed their CMC values.
To deeply understand the differences between single-chain and double-chain alkylated IAs with fragmented antibody binding peptides, further studies on CMC and secondary structures were conducted. The critical micelle concentration (CMC) values for various IAs were measured using Nile Red, a lipophilic dye that fluoresces depending on solvent polarity. Intensive fluorescence upon exposure to hydrophobic environments can be strongly quenched and red-shifted in aqueous media. When incubated with IAs at different concentrations in aqueous solution, Nile Red prefers to partition into the hydrophobic core offered by the self-assembled nanostructures and the CMC of IAs was determined when a blue-shift of the emission maximum occurred. […] Similarly, CMC values for C16-Helix2, Helix1-2C8, and 2C8-Helix2 can be obtained from FIG. 8B-8D.

Data set [2] is described as follows: Circular dichroism (CD) spectroscopy of peptide secondary structure. It counts as physicochemical. The note with it: 100 μM in water at pH 7.4. (Circular dichroism is the unequal absorption of left and right circularly polarised light.)
Data set [3] in a line: TEM imaging of self-assembled nanostructures (diameter). It counts as physicochemical. As to conditions: water; for diameter of nanofibers / nanobelts (TEM): pH 7.4, aged overnight; for diameter of smallest filaments (TEM): pH 7.4, double-chain alkylated IAs. How it is done: Self-Assembly of Immuno-Amphiphiles and TEM Imaging Immuno-amphiphiles with 1 mM concentration were pretreated with HFIP and then dissolved in 1×PBS or deionized water and aged overnight at room temperature; 10 μL of 10 fold diluted sample was spotted on a carbon film copper grid with 400 square mesh (from EMS: Electron Microscopy Sciences) and the excess was removed with filter paper to leave a thin film of sample on the grid. After letting the sample dry for 5 minutes, 10 μL of 2% uranyl acetate was added to sample grid, and the excess was removed after 30 seconds. All samples were dried for at least 3 hours before TEM imaging.

A further data set addresses IgG (Homo sapiens, UniProt P01857). As to the kind of experiment: IgG binding and precipitation by co-assembled immunofibers with 1 M ammonium sulfate (ProA column quantification). The note with it: mixed with IgG, 10:1 binding molecule to IgG. How it is done:
To investigate the IgG binding and precipitation ability with the new immunofibers binding system, 100 μl of desired immunofibers solution was incubated with IgG (with a 10:1 molar ratio of C12-VVKKGG(SEQ ID NO: 9) -Z33 and IgG) for half an hour followed by adding ammonium sulfate to a final concentration of 1 M to trigger the precipitation of the immunofibers and IgG. […] After centrifuging down the precipitates and analyzing the IgG concentration in the supernatant, about 30% IgG were precipitated out from the solution. IgG concentration was quantified with a ProA column (TSKgel® Protein A-5PW, 20 μm, 35×4.6 mm) monitored at 280 nm.
To increase the IgG binding efficiency and optimal precipitation condition in the co-assembled immunofibers binding system, several factors will continue to be optimized including the ratio of binding molecules to spacer molecules, the ratio of binding molecules to IgG, salt concentration, binding and salting time, and so on. The molar ratio of C12-VVEE (SEQ ID NO: 10) and C12-VVKKGG(SEQ ID NO: 9) -Z33 and the molar ratio of C12-VVKKGG(SEQ ID NO: 9) -Z33 were firstly studied and preliminary results were shown in FIG. 21. At a 10:2 molar ratio of C12VVKKGG(SEQ ID NO: 9) -Z33 to IgG and 1 M ammonium sulfate, 5 molar ratios of C12-VVEE (SEQ ID NO: 10) to C12-VVKKGG(SEQ ID NO: 9) -Z33 (5:1, 10:1, 25:1, 50:1, 100:1) were tested. […]

A short description of data set [4]: Thioflavin T (ThT) spectroscopic assay for β-sheet. The note with it: 100 μM in deionized water. It is filed as physicochemical. Here is the method: Thioflavin T (ThT) Spectroscopic Assay. A ThT stock solution was prepared in deionized water at 50 μM. […] The fluorescence intensity was then measured by a Fluorolog fluorometer (Jobin Yvon, Edison, NJ) with excitation at 440 nm (slit width 5 nm) and emission at 482 nm (slit width 10 nm).
To further confirm the component of secondary structures in the self-assembled IAs, a fluorescent dye Thioflavin-T (ThT) with large enhancement of its fluorescence emission upon binding to β-sheet surfaces was used to examine the existence of β-sheet secondary structures in Helix1-based IAs.

Where “and” joins values, the source holds several entries; their conditions need not be identical. Equal values may be shown once. Where no end group is shown, it is not given here. The star is where a group is joined. Palmitoyl = CCCCCCCCCCCCCCCC(=O)*; Octanoyl = CCCCCCCC(=O)*; C12H21O = C12 acyl

Chain of IgG (P01857 1-330 isoform P01857-1): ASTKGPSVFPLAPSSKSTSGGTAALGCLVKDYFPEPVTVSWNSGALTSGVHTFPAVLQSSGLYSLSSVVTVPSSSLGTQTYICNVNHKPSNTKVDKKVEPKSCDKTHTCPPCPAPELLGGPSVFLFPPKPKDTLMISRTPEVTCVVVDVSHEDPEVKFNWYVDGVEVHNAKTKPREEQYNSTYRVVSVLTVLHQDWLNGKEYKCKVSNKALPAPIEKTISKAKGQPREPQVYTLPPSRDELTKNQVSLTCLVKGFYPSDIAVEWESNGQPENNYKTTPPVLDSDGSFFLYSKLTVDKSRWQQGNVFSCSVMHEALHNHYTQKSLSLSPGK

“(C8H15O)2-KPNLNEEQRNAKIKSIRDD (SEQ ID NO: 7) (not fully specified (residue 1, N-terminus); printed as (C8H15O)2-KPNLNEEQRNAKIKSIRDD; also: two octanoyl chains (C8H15O)2 at N-terminal Lys, places not given here) [2C8-Helix2]” yielded a CMC in data set [1] of 5 to 10 µM. In addition, in data set [2], the “Main Secondary Structure (100 μM)” value was “α-helix”. Also, in data set [3], the “diameter of nanofibers / nanobelts (TEM)” value was 22.9±1.5 nm and the “diameter of smallest filaments (TEM)” value is 9.3±1.3 nm.
As for “C8H15O- PNLNEEQRNAKIKSIRDD (SEQ ID NO: 5) (Octanoyl-PNLNEEQRNAKIKSIRDD) [C8-Helix2]”, the CMC in data set [1] is >100 µM. Further, the “Main Secondary Structure (100 μM)” value in data set [2] is on record as “Random coil”.
For the substance “C12-VVKKGG (SEQ ID NO: 9) -Z33: binding molecule: C12 alkyl tail at N-terminus, VVKKGG spacer between the carbon chain and binding peptide Z33”, the “precipitation after addition of ammonium sulfate (observation)” value with IgG is “no precipitation was observed”.
Regarding “C12H21O- PNLNEEQRNAKIKSIRDD (SEQ ID NO: 5) (C12H21O-PNLNEEQRNAKIKSIRDD) [C12-Helix2]”, the CMC in data set [1] fell in the range of 2 to 5 µM. Moreover, the “Main Secondary Structure (100 μM)” value in data set [2] is given as “α-helix”.
“C16H31O- PNLNEEQRNAKIKSIRDD (SEQ ID NO: 5) (Palmitoyl-PNLNEEQRNAKIKSIRDD) [C16-Helix2]” returned a CMC in data set [1] of 0.5 to 1 µM. In data set [2], the “Main Secondary Structure (100 μM)” value is recorded as “β-sheet”. Besides, in data set [3], the “diameter of nanofibers / nanobelts (TEM)” value was 12.4±1.7 nm.
As for FNMQQQRRFYEALHD [Helix1], in data set [2], the “Main Secondary Structure (100 μM)” value is “random coil”.
In the case of “FNMQQQRRFYEALHDK (SEQ ID NO: 3)-C8H15O (not fully specified (residue 16); also: C-terminal C8 acyl (C8H15O), attachment not given here) [Helix1-C8]”, in data set [1], the CMC is >100 µM. Besides, the “Main Secondary Structure (100 μM)” value in data set [2] was “Random coil”.
The substance “FNMQQQRRFYEALHDK(SEQ ID NO: 3)-C12H21O (FNMQQQRRFYEALHDK(C12H21O); not fully specified) [Helix1-C12]” yielded a CMC in data set [1] of 5 to 10 µM. Moreover, in data set [2], the “Main Secondary Structure (100 μM)” value is listed as “β-sheet”. In data set [3], the “diameter of nanofibers / nanobelts (TEM)” value was 12.2±1.4 nm and 12.9±0.9 nm.
Take “FNMQQQRRFYEALHDK(SEQ ID NO: 3)-C16H31O (not fully specified (residue 16); also: C-terminal C16 acyl (C16H31O), attachment not given here) [Helix1-C16]”: the “ThT fluorescence emission at 482 nm compared with pure ThT solution” value in data set [4] is recorded as “dramatic increase of fluorescence”. The same substance returned a CMC in data set [1] of 0.5 to 1 µM. In addition, the “Main Secondary Structure (100 μM)” value in data set [2] is recorded as “β-sheet”. The “diameter of nanofibers / nanobelts (TEM)” value in data set [3] is 9.6±1.3 nm and 9.5±1.2 nm.
In turn, “FNMQQQRRFYEALHDKK(SEQ ID NO: 4)-(C8H15O)2 (not fully specified (residues 16, 17); also: two C-terminal octanoyl chains (C8H15O)2, places not given here) [Helix1-2C8]” displayed a CMC in data set [1] of 10 to 20 µM. The “Main Secondary Structure (100 μM)” value in data set [2] is given as “α-helix”. For the same substance, in data set [3], the “diameter of nanofibers / nanobelts (TEM)” value is reported as 10-70 nm and the “diameter of smallest filaments (TEM)” value was found to be 11.0±1.4 nm.
Regarding PNLNEEQRNAKIKSIRDD [Helix2], the “Main Secondary Structure (100 μM)” value in data set [2] is recorded as “random coil”.
